# Measurements: the Immune Epitope Database (IEDB)
# Experiments:
# Assay in all cases: IEDB peptide-MHC binding, purified MHC/competitive/radioactivity; ≥ and ≤ were set here for values at or beyond the usual limits of such assays
# Conditions in all cases: source organism: Bordetella pertussis
# HLA-B*44:03 = target: HLA-B*44:03
# HLA-B*57:01 = target: HLA-B*57:01
# HLA-B*35:01 = target: HLA-B*35:01
# HLA-B*53:01 = target: HLA-B*53:01
# HLA-B*07:02 = target: HLA-B*07:02
# HLA-A*02:01 = target: HLA-A*02:01
sequence,measurement,setting,value
AAVALLNKL,IC50,HLA-B*44:03,0.672 µM
AQITSYVGF,IC50,HLA-B*44:03,2.12 µM
AVLVNPHIF,IC50,HLA-B*57:01,33.3 µM
DDEVDVSGR,IC50,HLA-B*57:01,≥ 70.4 µM
ETFCITTIY,IC50,HLA-B*35:01,15.8 µM
same,IC50,HLA-B*53:01,31.1 µM
FVRSGQPVI,IC50,HLA-B*07:02,17.6 µM
GKDLKRPGS,IC50,HLA-B*35:01,69.9 µM
GPPSRPTTP,IC50,HLA-B*07:02,69.6 µM
GPSAVAAPA,IC50,HLA-B*07:02,0.624 µM
GVAPTAQQL,IC50,HLA-A*02:01,69.4 µM
ITVTSRGGF,IC50,HLA-B*57:01,0.773 µM
MAAESTFES,IC50,HLA-B*53:01,24.1 µM
MATKGEMQI,IC50,HLA-B*53:01,58 µM
PPKPAPVAK,IC50,HLA-B*07:02,≥ 77.5 µM
QVGSSNSAF,IC50,HLA-B*35:01,69.9 µM
TTLGLEQTF,IC50,HLA-B*57:01,4.77 µM
VHVSKEEQY,IC50,HLA-B*35:01,69.9 µM
VLVKTNMVV,IC50,HLA-A*02:01,11.4 µM
YMIYMSGLA,IC50,HLA-A*02:01,0.407 µM
